# Measurements taken from patent US20180265573A1.
# Target: hemagglutinin of influenza A virus A/New Caledonia/20/99 (H1) (influenza A virus A/New Caledonia/20/99 (H1))
binder,measurement,value
"monoclonal antibody GG3 (antibody, V domains shown) VH: QIQLVQSGPELKKPGETVKISCKASGYTFTNYGMNWVKQAPGKGLKWMGWINIYSGESTYVDDFTGRFAFSLETSASTAYLQINNLKNEDMATYFCARSGDTMITAGRSFFAMDYWGQGTSVTVSS VL: DIQMTQSPSSLSASLGERVSLTCRASQEISGYLSWLQQKPDGTIKRLIYAASTLDSGVPKRFSGSRSGSDYSLSISSLESEDFADYYCLQYANYPWSFGGGTKLEIK","IC50 (read off the curve), plaque reduction neutralization assay",6 µg/mL
